Assay results as given in patent publication US6495376 (dated 2002).
Read-outs that look alike come from different tables or passages of the source. Where no end group is shown, it is not given here. [ ]: non-standard residue; d: D form. fluorescein = N-terminal fluorescein label; pT = C[C@@H](OP(=O)(O)O)[C@H](N)C(=O)O; pS = N[C@@H](COP(=O)(O)O)C(=O)O

What was measured:
GST [1] = molecular target: T1, GST (UniProt P08515 1-218 = GST); test: fluorescence anisotropy
T1 construct: Control protein; also called control GST

GST-WW-domain of Pin1 = molecular target: T2, GST-WW-domain of Pin1 (human, UniProt Q13526 1-54); test: fluorescence anisotropy
T2 construct: range 1-54; also called GST-Pin1 WW-domain; Pin1 WW-domain; not shown: glutathione S-transferase (GST), N-terminal fusion partner

GST [2] = molecular target: T1, GST; test: fluorescence anisotropy; remark: listed apart in the source
Pin1^Y23A = molecular target: T3, Pin1^Y23A (human, UniProt Q13526 1-163); test: ELISA
T3 construct: mature; also called Pin1^Y23A mutant

Binder | binding result (GST [1]) | binding result (GST [2]) | other results
fluorescein-EQPL[pT]PVTDL (also called Cdc25C peptide) [Cdc25 Peptide EQPLpTPVTDL] | no binding |  | 
fluorescein-IPGTPPPNYD [Pro-Rich peptide IPGTPPPNYD] | no binding |  | binding result (GST-WW-domain of Pin1): no binding
fluorescein-WFYSPFLE (also called nonphosphorylated peptide) [WFYSPFLE, nonphosphorylated control peptide] |  | no binding | 
fluorescein-WFY[pS]PFLE (also called phosphopeptide) [Pintide analogue WFYpSPFLE] |  | no binding | 
fluorescein-EQPLTPVTDL [Cdc25 Peptide EQPLTPVTDL (nonphosphorylated)] | no binding |  | 
KVAVVR[pT]PPKSPS (also called pT231 tau peptide (row of Pin1^Y23A)) [tau peptide KVAVVRTPPKSPS (pT-231), SEQ ID NO: 30] |  |  | binding result (Pin1^Y23A): no binding
